Target: RHT1‐GRAS (truncated DELLA protein containing only the C‐terminal GRAS domain) (wheat (Triticum turgidum ssp. durum, cultivar Kronos))
Assay: two-hybrid; yeast-three-hybrid (Y3H), quantitative alpha-galactosidase activity; DELLA-GRAS as AD, SPL3 or SPL4 as BD, VRN1 or FUL2 expressed as third protein; Method S10

percent decrease of the DELLA-SPL3 interaction (m1 with m2) when expressed as third protein [%]	percent decrease of the DELLA-SPL4 interaction (m1 with m3) when expressed as third protein [%]	Substance
60	55	FUL2 expressed as the third protein in the yeast‐three‐hybrid system (natural protein)
48	36	VRN1 expressed as the third protein in the yeast‐three‐hybrid system (natural protein)
